Patent publication US20210238302A1, “HIGH AFFINITY MONOCLONAL ANTIBODIES (MABS) AGAINST CELL SURFACE EXPRESSED HUMAN CARBONIC ANHYDRASE IX (HCA-IX), AND USES THEREOF” (NATIONAL RESEARCH COUNCIL OF CANADA, priority 2018, published 2021)
“Also recorded” adds a separate entry of the source. Read-outs that look alike come from different tables or passages of the source.

Key:
[1] = biological target: rhCA-IX ECD Monomer (Homo sapiens, UniProt Q16790)
Procedure: (§1) SPR experiments were carried out by capturing the CA-IX mAbs from the CM with an anti-mouse Fc antibody immobilized on the chip surface, after which rhCA-IX EDC mixture, or rhCA-IX EDC monomer or dimer were flowed over the mAb surface.

[2] = biological target: rhCA-IX ECD Dimer (Homo sapiens, UniProt Q16790)
Procedure: as §1

[3] = biological target: rhCA-XIV (Homo sapiens, UniProt Q9ULX7); test: Cross-reactivity determination by SPR; assay type: binding
rhCA-XIV, sequence (Q9ULX7 16-337): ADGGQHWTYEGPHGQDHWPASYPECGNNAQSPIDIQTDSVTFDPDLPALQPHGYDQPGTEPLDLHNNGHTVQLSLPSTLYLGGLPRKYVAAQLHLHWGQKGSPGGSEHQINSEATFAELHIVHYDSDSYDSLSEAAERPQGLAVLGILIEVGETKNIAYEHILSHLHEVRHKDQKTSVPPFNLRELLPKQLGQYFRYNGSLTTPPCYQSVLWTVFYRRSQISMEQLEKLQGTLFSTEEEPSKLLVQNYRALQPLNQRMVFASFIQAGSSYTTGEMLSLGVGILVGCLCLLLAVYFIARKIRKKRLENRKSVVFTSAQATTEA
Text: (§2) hCA-IX is one of several hCAs that have been identified to date (see FIG. 1). […] In contrast to hCA-IX the expression pattern of hCA-XII is much more widespread and not as cancer specific as hCA-IX.

[4] = biological target: rhCA-XII (Homo sapiens, UniProt O43570); test: Cross-reactivity determination by SPR; assay type: binding
rhCA-XII, sequence (O43570 25-354): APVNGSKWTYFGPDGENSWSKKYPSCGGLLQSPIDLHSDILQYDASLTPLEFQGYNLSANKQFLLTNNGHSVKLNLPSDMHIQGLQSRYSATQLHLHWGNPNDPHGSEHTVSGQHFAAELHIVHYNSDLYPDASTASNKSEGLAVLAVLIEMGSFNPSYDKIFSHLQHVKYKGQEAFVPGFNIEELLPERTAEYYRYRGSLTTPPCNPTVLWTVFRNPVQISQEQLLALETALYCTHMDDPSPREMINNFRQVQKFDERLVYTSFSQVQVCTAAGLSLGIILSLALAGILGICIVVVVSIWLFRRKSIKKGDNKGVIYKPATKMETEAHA
Text: as §2

[5] = biological target: rhCA-IV (Homo sapiens, UniProt P22748); test: Cross-reactivity determination by SPR; assay type: binding
rhCA-IV, sequence (P22748 19-284): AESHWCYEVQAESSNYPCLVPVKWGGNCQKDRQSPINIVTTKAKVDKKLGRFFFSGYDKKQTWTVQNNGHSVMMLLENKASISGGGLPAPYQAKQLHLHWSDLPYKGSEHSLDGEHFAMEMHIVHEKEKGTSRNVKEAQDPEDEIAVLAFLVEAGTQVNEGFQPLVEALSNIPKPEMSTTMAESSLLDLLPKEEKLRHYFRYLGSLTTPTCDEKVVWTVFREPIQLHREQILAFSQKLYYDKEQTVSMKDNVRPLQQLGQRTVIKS
Text: as §2

[6] = tested on: hCA-IX ECD fragments; test: Epitope mapping by Yeast Surface Display (whole yeast cell ELISA); assay type: binding, human; parameters: key: −: no binding; +: binding
Procedure: Yeast Surface Display (YSD; developed by the Wittrup lab) is used for presenting properly folded (ensured by the “quality-control” processes of the secretory pathway of the yeast) antigen fragments on the yeast cell surface through covalent linkage (FIG. 15A). […] The epitope mapping of the mAbs was performed using a whole yeast cell ELISA protocol. […] These experiments were performed on native and denatured yeast cells, where in both cases binding of each mAb was normalized to the anti-MYC signal. The ratio of each normalized anti-CA-IX mAb signal of native versus denatured hCA-IX peptide is thus indicative of the conformational nature of the mAb binding epitope. In the native hCA-IX experiments the commercial M75 mAb was used as a positive control; the epitope of this mAb is known (Zavada et al., 2000) and is located in hCA-IX's PG domain.

[7] = biological target: rmCA-IX (Mus musculus, UniProt Q8VHB5); test: Cross-reactivity determination by SPR; assay type: binding, murine
rmCA-IX, sequence (Q8VHB5 32-437): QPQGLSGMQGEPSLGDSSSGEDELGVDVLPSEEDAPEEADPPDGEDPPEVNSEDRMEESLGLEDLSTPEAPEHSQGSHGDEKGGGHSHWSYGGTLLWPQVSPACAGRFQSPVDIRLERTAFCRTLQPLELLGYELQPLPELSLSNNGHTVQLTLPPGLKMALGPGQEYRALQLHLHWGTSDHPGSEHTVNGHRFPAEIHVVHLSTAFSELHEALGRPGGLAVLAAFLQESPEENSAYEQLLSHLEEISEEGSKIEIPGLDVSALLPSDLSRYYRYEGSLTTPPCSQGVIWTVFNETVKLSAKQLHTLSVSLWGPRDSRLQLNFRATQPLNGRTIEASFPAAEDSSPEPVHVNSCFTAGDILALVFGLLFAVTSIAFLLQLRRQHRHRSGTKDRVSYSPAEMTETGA
Text: as §2

[8] = Cell viability; assay type: cell-based
[9] = biological target: rhCA-IX ECD (Homo sapiens, UniProt Q16790); test: Western blot of non-purified mAbs on purified CA-IX ECD antigen; assay type: binding; details: undiluted CM; non-reducing and reducing conditions
Text: Anti-hCA-IX mAb 10F2 is shown as a positive control.

[10] = biological target: rhCA-IX ECD monomer or dimer (Homo sapiens, UniProt Q16790)
[11] = tested on: SK-RC-52 cells; test: Internalization of pHAb dye labeled mAbs; assay type: cell-based, human; details: antibody-pHAb dye conjugates, 37° C., 24 h
Text: In addition, we also evaluated the internalization potential of these mAbs with the thought of using these enzyme-inhibiting mAbs to bring a toxic pay-load into cancer cells. For this, both mAbs, in addition to a negative control IgG, were labeled with a pH sensitive reactive dye (pHAb; Promega). Upon receptor-mediated internalization, these antibody-pHAb Dye conjugates traffick to the endosome and lysosomal vesicles where pH is acidic, causing the pHAb dye to fluoresce. CA-IX expressing SK-RC-52 expressing cells were incubated with these antibody-pHAb dye conjugates (10 μg/mL) and incubated at 37° C. (5% CO2, humidified environment) for 24 h (FIG. 18A) or coated with various concentrations of the conjugates for 30 min at 4° C., washed, and then transferred to 37° C. (5% CO2, humidified environment) for 24 h (FIG. 18B).

[12] = biological target: T1, low hCA-IX expressing SK-RC-59 cells (Homo sapiens, UniProt Q16790); test: Flow cytometry binding, SK-RC-59 cells; assay type: cell-based; details: SK-RC-59 (low hCA-IX)
T1 construct: the non-transfected human renal tumor SK-RC-59 and SK-RC-52 cell lines; endogenous in cells; host or cells: SK-RC-52 (high hCA-IX), SK-RC-59 (low hCA-IX)
Procedure: These cell lines have been used in the literature for the screening of scFv Abs for binding to hCA-IX (Xu et al., 2011). Western blot analysis of these cell lines under reducing and non-reducing conditions (FIG. 8) confirmed the expression of hCA-IX in the SK-RC-52 cell line (indicated with a star), whereas no hCA-IX could be detected in the SK-RC-59 cell line. Equal protein quantities were loaded (BCA protein assay) which was confirmed by an actin blot.
Flow cytometry: mAbs were evaluated in a flow cytometry experiment using the SK-RC-59 and SK-RC-52 cell lines. As controls a commercially available mAb (R&D, Clone #303123, Cat #MAB2188) and the M75 mAb (generously supplied by Dr E Oosterwijk, Radboud University Nijmegen, The Netherlands) were used. Experiments were plotted per cell line (FIG. 9) using a double Y-axis (left Y-axis, % live cells, closed squares; right Y-axis, mean fluorescence intensity of the live population, closed circles; X-axis, experimental groups).

[13] = Differential Scanning Calorimetry (DSC) thermostability; assay type: physicochemical; details: DSC 25° C. to 100° C., scan rate 90° C./hour; versus Cetuximab
Procedure: (scan rate 90° C./hour). The therapeutic anti-EGFR Ab Cetuximab, which has been proven to be a very stable under these conditions, was used as control.

[14] = hybridoma-derived mAb, rhCA-IX ECD dimer
[15] = recombinant mAbs, rhCA-IX ECD monomer

B1: 9B6: mouse IgG2b monoclonal antibody inhibiting hCA-IX catalytic activity; SEQ ID NO.14 and 18; hybridoma-derived and recombinant (SEQ ID NO. 24 and 25) (antibody, V domains shown)
VL: DIVLTQSPSSLAVSLGQRATISCKASQSVDYDGNSYMNWFQQKPGQPPKLLIYEASSLESGIPARISGSGSGTDFTLNIHPVEEEDAATYYCQQSYEGPYTFGGGTKLEIK
VH: QVQLQQPGAELVKPGASVKLSCKASGYIFTTKWINWVKQRPGQGLEWIGNIYPGSSNTYYNEKFKNKATLTVDKSSNTAHLQLSSLTSEDSAVYYCARGIANWGQGTPVTVSA
**Q.** Which off rate ([1]; Hybridoma-derived) does the source give for B1 here?
**A.** Its off rate is “slow”.

**Q.** What about the off rate ([1]; Recombinantly expressed, mIgG2b) of the same molecule?
**A.** Its off rate is “slow”.

**Q.** What about the off rate ([2]; Hybridoma-derived, rhCA-IX ECD dimer) of the same molecule?
**A.** Its off rate is “extremely slow”.

**Q.** And the ka [2, 14]?
**A.** The ka was 1.33E+05.

**Q.** And the kd [2, 14]?
**A.** The kd was 4.17E−18.

**Q.** What about the binding kinetics ([2]; recombinant and hybridoma-derived mAb, rhCA-IX ECD dimer (FIG. 12)) of the same molecule?
**A.** The binding kinetics was “poor”.

**Q.** And the “SPR binding (cross-reactivity)” value [3]?
**A.** Its value is “no interaction was detected”.

**Q.** What about the “SPR binding (cross-reactivity)” value [4] of the same molecule?
**A.** The value was “no interaction was detected”.

**Q.** What about the “SPR binding (cross-reactivity)” value [5] of the same molecule?
**A.** Its value is “no interaction was detected”.

**Q.** And the “Anti-CA-IX Ab binding intensity (normalized on CA-IX_MYC expression on cells)” value ([6]; Denatured CA-IX protein, EBY100, No-plasmid, Strain Ctrl, Neg Ctrl (PNL6 series))?
**A.** Its value is “−”.

**Q.** What about the “Anti-CA-IX Ab binding intensity (normalized on CA-IX_MYC expression on cells)” value ([6]; Denatured CA-IX protein, EBY100, No-plasmid, Strain Ctrl, Neg Ctrl (PNL200 series)) of the same molecule?
**A.** The value was “−”.

**Q.** And the “Anti-CA-IX Ab binding intensity (normalized on CA-IX_MYC expression on cells)” value ([6]; Denatured CA-IX protein, clone 1A, PNL6, Aga2-HA-CA9-MYC, fragment 1, aa 52-111, PG)?
**A.** Its value is “−”.

**Q.** And the “Anti-CA-IX Ab binding intensity (normalized on CA-IX_MYC expression on cells)” value ([6]; Denatured CA-IX protein, clone 2B, PNL6, Aga2-HA-CA9-MYC, fragment 2, aa 38-136, +PG+)?
**A.** The value was “−”.

**Q.** And the “Anti-CA-IX Ab binding intensity (normalized on CA-IX_MYC expression on cells)” value ([6]; Denatured CA-IX protein, clone 3A, PNL6, Aga2-HA-CA9-MYC, fragment 3, aa 1-136, SP+PG+)?
**A.** The value was “−”.

**Q.** And the “Anti-CA-IX Ab binding intensity (normalized on CA-IX_MYC expression on cells)” value ([6]; Denatured CA-IX protein, clone 11B, PNL6, Aga2-HA-X-MYC, Plasmid Ctrl, Neg Ctrl)?
**A.** Its value is “−”.

**Q.** What about the “Anti-CA-IX Ab binding intensity (normalized on CA-IX_MYC expression on cells)” value ([6]; Denatured CA-IX protein, clone 12B, PNL200, CA9-Aga2-MYC, fragment 1, aa 52-111, PG) of the same molecule?
**A.** Its value is “−”.

**Q.** And the “Anti-CA-IX Ab binding intensity (normalized on CA-IX_MYC expression on cells)” value ([6]; Denatured CA-IX protein, clone 13A, PNL200, CA9-Aga2-MYC, fragment 2, aa 38-136, +PG+)?
**A.** The value was “−”.

**Q.** And the “Anti-CA-IX Ab binding intensity (normalized on CA-IX_MYC expression on cells)” value ([6]; Denatured CA-IX protein, clone 14A, PNL200, CA9-Aga2-MYC, fragment 3, aa 1-136, SP+PG+)?
**A.** Its value is “−”.

**Q.** And the “Anti-CA-IX Ab binding intensity (normalized on CA-IX_MYC expression on cells)” value ([6]; Denatured CA-IX protein, clone 22A, PNL200, X-Aga2-MYC, Plasmid Ctrl, Neg Ctrl)?
**A.** Its value is “−”.

**Q.** What about the “Anti-CA-IX Ab binding intensity (normalized on CA-IX_MYC expression on cells)” value ([6]; Native CA-IX protein, EBY100, No-plasmid, Strain Ctrl, Neg Ctrl (PNL6 series)) of the same molecule?
**A.** The value was “−”.

**Q.** And the “Anti-CA-IX Ab binding intensity (normalized on CA-IX_MYC expression on cells)” value ([6]; Native CA-IX protein, EBY100, No-plasmid, Strain Ctrl, Neg Ctrl (PNL200 series))?
**A.** The value was “−”.

**Q.** And the “Anti-CA-IX Ab binding intensity (normalized on CA-IX_MYC expression on cells)” value ([6]; Native CA-IX protein, clone 1A, PNL6, Aga2-HA-CA9-MYC, fragment 1, aa 52-111, PG)?
**A.** Its value is “−”.

**Q.** And the “Anti-CA-IX Ab binding intensity (normalized on CA-IX_MYC expression on cells)” value ([6]; Native CA-IX protein, clone 2B, PNL6, Aga2-HA-CA9-MYC, fragment 2, aa 38-136, +PG+)?
**A.** The value was “−”.

**Q.** What about the “Anti-CA-IX Ab binding intensity (normalized on CA-IX_MYC expression on cells)” value ([6]; Native CA-IX protein, clone 3A, PNL6, Aga2-HA-CA9-MYC, fragment 3, aa 1-136, SP+PG+) of the same molecule?
**A.** The value was “−”.

**Q.** What about the “Anti-CA-IX Ab binding intensity (normalized on CA-IX_MYC expression on cells)” value ([6]; Native CA-IX protein, clone 11B, PNL6, Aga2-HA-X-MYC, Plasmid Ctrl, Neg Ctrl) of the same molecule?
**A.** The value was “−”.

**Q.** What about the “Anti-CA-IX Ab binding intensity (normalized on CA-IX_MYC expression on cells)” value ([6]; Native CA-IX protein, clone 12B, PNL200, CA9-Aga2-MYC, fragment 1, aa 52-111, PG) of the same molecule?
**A.** Its value is “−”.

**Q.** What about the “Anti-CA-IX Ab binding intensity (normalized on CA-IX_MYC expression on cells)” value ([6]; Native CA-IX protein, clone 13A, PNL200, CA9-Aga2-MYC, fragment 2, aa 38-136, +PG+) of the same molecule?
**A.** The value was “−”.

**Q.** What about the “Anti-CA-IX Ab binding intensity (normalized on CA-IX_MYC expression on cells)” value ([6]; Native CA-IX protein, clone 14A, PNL200, CA9-Aga2-MYC, fragment 3, aa 1-136, SP+PG+) of the same molecule?
**A.** Its value is “−”.

**Q.** And the “Anti-CA-IX Ab binding intensity (normalized on CA-IX_MYC expression on cells)” value ([6]; Native CA-IX protein, clone 22A, PNL200, X-Aga2-MYC, Plasmid Ctrl, Neg Ctrl)?
**A.** The value was “−”.

**Q.** What about the “SPR binding (cross-reactivity)” value [7] of the same molecule?
**A.** The value was “no interaction was detected”.

**Q.** What about the “reduction of cell viability” value [8] of the same molecule?
**A.** Its value is “active in reducing cell viability”.

**Q.** And the “Western blot binding to rhCA-IX ECD” value [9]?
**A.** The value was “do not detect rhCA-IX ECD; also recorded: failed to bind”.

**Q.** What about the “competition between 4A2 and 9B6 for binding” value ([10]; hybridoma-derived mAbs, rhCA-IX ECD monomer or dimer) of the same molecule?
**A.** Its value is “do not compete”.

**Q.** What about the “competition between 4A2 and 9B6 for binding” value [10, 15] of the same molecule?
**A.** Its value is “do not compete for binding to hCA-IX”.

**Q.** And the “competition with cG250 for binding to hCA-IX” value [10, 15]?
**A.** The value was “neither the 9B6 nor the 4A2 mAb competes with cG250”.

**Q.** And the internalization [11]?
**A.** Its internalization is “internalize in a CA-IX specific manner”.

**Q.** What about the “binding to cell surface hCA-IX by flow cytometry” value [12] of the same molecule?
**A.** Its value is “virtually no binding was detected”.

**Q.** What about the thermostability [13] of the same molecule?
**A.** Its thermostability is “slightly less stable than Cetuximab”.
